Source: US20100009907A1, “Glucagon-Like Peptides and Uses Thereof” (AMYLIN PHARMACEUTICALS, INC., priority 2006, published 2010)
Where no end group is shown, it is not given here.

T1: GLP-1 receptor (endogenous, RINm5F cell membranes; rat thyroid carcinoma 6-23 clone 6 cells) (rat, UniProt P32301 22-463)
T1 construct: whole, on cells
T1 sequence (looked up): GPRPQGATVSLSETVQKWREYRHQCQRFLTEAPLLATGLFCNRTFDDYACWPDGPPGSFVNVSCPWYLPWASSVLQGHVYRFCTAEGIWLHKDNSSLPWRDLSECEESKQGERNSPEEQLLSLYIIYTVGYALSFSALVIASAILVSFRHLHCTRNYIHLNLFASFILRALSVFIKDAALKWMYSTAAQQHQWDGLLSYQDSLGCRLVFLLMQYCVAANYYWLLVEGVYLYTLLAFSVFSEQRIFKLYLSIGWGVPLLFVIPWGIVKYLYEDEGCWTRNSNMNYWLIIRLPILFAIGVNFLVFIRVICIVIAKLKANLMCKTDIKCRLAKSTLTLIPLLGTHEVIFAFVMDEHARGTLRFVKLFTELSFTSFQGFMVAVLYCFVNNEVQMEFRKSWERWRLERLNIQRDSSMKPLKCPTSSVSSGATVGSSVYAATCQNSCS

B1: SEQ ID NO 52 (peptide)
peptide: HADGTFTNDMTSYLDAKAARDFVSWLARSDKS
notes: also called nmGLP-1 peptide; naturally occurring nmGLP-1
B2: SEQ ID NO 49 (peptide)
peptide: HADGTYTSDVSSYLQDQAAKDFITWLKSGQPKPDAVETRSVDTL
notes: as for B1
B3: SEQ ID NO 51 (peptide)
peptide: YADAPYISDVYSYLQDQVAKKWLKSGQD
notes: as for B1
B4: SEQ ID NO 1 (peptide)
peptide: HAEGTFTSDVTQQLDEKAAKEFIDWLINGGPSKEIIS-OH
notes: as for B1
B5: SEQ ID NO 2 (peptide)
peptide: HAEGTYTNDVTEYLEEKAAKEFIEWLIKGKPKKIRYS
notes: as for B1
B6: SEQ ID NO 48 (peptide)
peptide: HADGTYTSDVSSYLQDQAAKDFITWLKSGQPKPDAVET
notes: as for B1

The binders below were run against T1, GLP-1 receptor (endogenous, RINm5F cell …) (assay: displacement of [125I]GLP-1 from RINm5F cell membranes (GLP RBA)).
Protocol: GLP-1 receptor binding activity and affinity can be measured using a binding displacement assay in which the receptor source is RINm5F cell membranes, and the ligand is [¹²⁵I]GLP-1. Homogenized RINm5F cell membranes are incubated in 20 mM HEPES buffer with 40,000 cpm [¹²⁵I]GLP-1 tracer, and varying concentrations of test compound for 60 minutes at 23° C. with constant mixing. Reaction mixtures are filtered through glass filter pads presoaked with 0.3% PEI solution and rinsed with ice-cold phosphate buffered saline. Bound counts are determined using a scintillation counter. Binding affinities are calculated using GraphPad Prism software (GraphPad Software, Inc., San Diego, Calif.).

Row | Binder | IC50 [nM]
1 | HGEGTYTNDVTQFLEEKAAKEFIDWLIKGKPKKQRLS (also called nmGLP-1 analog) [SEQ ID NO 55] | 0.05
2 | HAEGTYTNDVTEYEEKAAKEFIEWLIKGKPKKIRYS (also called nmGLP-1 analog) [SEQ ID NO 38] | 42
3 | HAEGTYTNDVTEYLEKAAKEFIEWLIKGKPKKIRYS (also called nmGLP-1 analog) [SEQ ID NO 29] | 91
4 | HAEGTYTNDVTEYLEEAAKEFIEWLIKGKPKKIRYS (also called nmGLP-1 analog) [SEQ ID NO 30] | 537
5 | B1 | 0.9
6 | HAEGTFTSDVTQQLDEKAAKEFIDWLINGGASKEIIS (also called nmGLP-1 analog) [SEQ ID NO 12] | 8.8
7 | HAEGTYTNDVTEYLEEKAAKEFIEWLIN (also called nmGLP-1 analog) [SEQ ID NO 24] | 1.3
8 | HAEGTYTNDVTEYLEEKAAKEFIEWLIK (also called nmGLP-1 analog) [SEQ ID NO 25] | 0.54
9 | B2 | 74
10 | HAEGTFTSDVTQQLDEKAAKEFIDWLINGGPSKEIIS (also called nmGLP-1 analog) [SEQ ID NO 11] | 2.3
11 | HXEGTFTSDVTQQLDEKAAKEFIDWLINGGPSKEIIS (dAla at position 2 (a = dAla), also called nmGLP-1 analog) | 1.9
12 | B3 | 111
13 | HAEGTFTSDVTQQLEEKAAKEFIEWLIKGKPKKIRYS (also called nmGLP-1 analog) [SEQ ID NO 22] | 0.067
14 | HXEGTYTNDVTEYLEEKAAKEFIEWLIKGKPKKIRYS (Aib (2-Aminoisobutyric acid) at position 2, also called nmGLP-1 analog) | 0.1
15 | HXEGTYTNDVTEYLEEKAAKEFIEWLIKGKPKKIRYS (Abu (2-Aminobutyric acid) at position 2, also called nmGLP-1 analog) [SEQ ID NO 28] | 0.067
16 | HAEGTYTNDVTEYLEEKAAKEFIEWLINGGPSKEIIS (also called nmGLP-1 analog) [SEQ ID NO 21] | 2.1

These binders were tested against T1, GLP-1 receptor (endogenous, RINm5F cell …) (assay: cell-based or functional assay).

Row | Binder | GLP-1 cAMP (6-23) EC50 [nM]
17 | HAEGTYTNDVTEYLEEKAAKEFIEWLIKGKPK [SEQ ID NO 40] | 0.12
18 | HAEGTYTNDVTEYLEEKAAKEFIEWLI [SEQ ID NO 42] | 0.22
19 | HXEGTYTNDVTQFLEEKAAKEFIDWLIKGKPKKQRLS (Abu (2-Aminobutyric acid) at position 2) | 0.12
20 | HAEGTYTNDVTEYEEKAAKEFIEWLIKGKPKKIRYS (also called nmGLP-1 analog) [SEQ ID NO 38] | 104
21 | HAEGTYTNDVTEYLEKAAKEFIEWLIKGKPKKIRYS (also called nmGLP-1 analog) [SEQ ID NO 29] | 930
22 | HAEGTYTNDVTEYLEEKAAKFIEWLIKGKPKKIRYS (also called nmGLP-1 analog) [SEQ ID NO 31] | 44
23 | HAEGTYTNDVTEYLEEAAKEFIEWLIKGKPKKIRYS (also called nmGLP-1 analog) [SEQ ID NO 30] | > 1000
24 | HXEGTYTNDVTEYLEEKAAKEFIEWL (dAla at position 2 (a = dAla)) [SEQ ID NO 45] | 34
25 | HAEGTFTSDVTQQLDEKAAKEFIDWLINPGSEGIKSI (also called nmGLP-1 analog) [SEQ ID NO 14] | 2.2
26 | B4 | 7.7
27 | EGTYTNDVTEYLEEKAAKEFIEWLIKGKPKKIRYS (also called nmGLP-1 analog) [SEQ ID NO 37] | > 1000
28 | B5 | 0.82
29 | HGEGTYTNDVTEYLEEKAAKEFIEWLIKGKPKKIRYS (also called nmGLP-1 analog) [SEQ ID NO 26] | 0.16
30 | HAEGTYTNDVTEYLEEKAAKEFIEWLIPKKIRYS (also called nmGLP-1 analog) [SEQ ID NO 32] | 8.3
31 | HAEGTYTNDVTEYLEEKAAKEFIEWL [SEQ ID NO 44] | 23
32 | B6 | 2.34
33 | HAEGTYTNDVTEYLEEKAAKEFIEW [SEQ ID NO 46] | 1940
34 | HAEGTYTNDVTEYLEEKAAKEFIEWLIGKPKKIRYS (also called nmGLP-1 analog) [SEQ ID NO 35] | 0.172
35 | HAEGTYTNDVTEYLEEKAAKEFIEWLIKGPKKIRYS (also called nmGLP-1 analog) [SEQ ID NO 36] | 0.086
36 | HXEGTYTNDVTEYLEEKAAKEFIEWLI (dAla at position 2 (a = dAla)) [SEQ ID NO 43] | 0.14

The binders below were run against endogenous GLP-1, calcitonin, and GIP receptors of RINm5f cells (assay: cell-based or functional assay).

Row | Binder | GLP/GIP/CT cAMP(RIN) EC50 [nM]
37 | HXEGTFTSDVTQQLDEKAAKEFIDWLIN (here or on the partner: dAla at position 2 (a = dAla)) [SEQ ID NO 8] | 19
38 | HAEGTYTNDVTQFLEEKAAKEFIDWLIKGKPKKQRLS [SEQ ID NO 50] | 0.14
39 | HXEGTYTNDVTQFLEEKAAKEFIDWLIKGKPKKQRLS (here or on the partner: dAla at position 2 (a = dAla)) [SEQ ID NO 54] | 0.435
40 | HXEGTYTNDVTQFLEEKAAKEFIDWLIKGKPKKQRLS (here or on the partner: Abu (2-Aminobutyric acid) at position 2) | 0.146
41 | HGEGTYTNDVTQFLEEKAAKEFIDWLIKGKPKKQRLS (also called nmGLP-1 analog) [SEQ ID NO 55] | 0.576
42 | B1 | 382
43 | HAEGTFTNDMTNYLEEKAAKEFVGWLIKGRS (also called nmGLP-1 analog) [SEQ ID NO 6] | 1.23
44 | HAEGTFTSDVTQQLDEKAAKEFIDWLINPGSEGIKSI (also called nmGLP-1 analog) [SEQ ID NO 14] | 18
45 | B4 | 1.9
46 | HAEGTFTSDVTQQLDEKAAKEFIDWLINGGASKEIIS (also called nmGLP-1 analog) [SEQ ID NO 12] | 0.29
47 | HAEGTFTSDVTQQLDEKAAKEFIDALINGGPSKEIIS (also called nmGLP-1 analog) [SEQ ID NO 13] | 196
48 | HAEGTYTNDVTEYLEEKAAKEFIEWLIN (also called nmGLP-1 analog) [SEQ ID NO 24] | 0.85
49 | HAEGTYTNDVTEYLEEKAAKEFIEWLIK (also called nmGLP-1 analog) [SEQ ID NO 25] | 0.53
50 | HAEGTFTSDVTQQLDEKAAKEFIDWLIN (also called nmGLP-1 analog) [SEQ ID NO 7] | 4.7
51 | B2 | 415
52 | HAEGTFTSDVTQQLDEKAAKEFIDWLINGGPSKEIIS (also called nmGLP-1 analog) [SEQ ID NO 11] | 0.59
53 | HXEGTFTSDVTQQLDEKAAKEFIDWLINGGPSKEIIS (here or on the partner: dAla at position 2 (a = dAla)) | 0.048
54 | B3 | 971
55 | HAEGTFTSDVTQQLEEKAAKEFIEWLIKGKPKKIRYS (also called nmGLP-1 analog) [SEQ ID NO 22] | 0.1
56 | B5 | 0.36
57 | HGEGTYTNDVTEYLEEKAAKEFIEWLIKGKPKKIRYS (also called nmGLP-1 analog) [SEQ ID NO 26] | 0.967
58 | HAEGTFTSDVTQQLDEKAAKEFIDWLINGGPSSGAPPPS [SEQ ID NO 9] | 0.28
59 | B6 | 14
60 | HXEGTYTNDVTEYLEEKAAKEFIEWLIKGKPKKIRYS (here or on the partner: dAla at position 2 (a = dAla)) [SEQ ID NO 23] | 0.22
61 | HXEGTYTNDVTEYLEEKAAKEFIEWLIKGKPKKIRYS (here or on the partner: Aib (2-Aminoisobutyric acid) at position 2) | 0.544
62 | HAEGTYTNDVTEYLEEKAAKEFIEWLINGGPSKEIIS (also called nmGLP-1 analog) [SEQ ID NO 21] | 1
